Measured values from publication PMC7606508, “Synthesis of two new lipid mediators from docosahexaenoic acid by combinatorial catalysis involving enzymatic and chemical reaction” (Scientific Reports, 2020).

How the values were obtained:
Test in all cases: purified protein
Format in all cases: biochemical, Phormidium nigroviride
Settings in all cases: 50 mM Tris-HCl pH 8.0, 30 °C, 3 μg/mL enzyme, 25-175 μM substrate
purified protein [1] = substrate: CC/C=C\C/C=C\C/C=C\C/C=C\C/C=C\C/C=C\CCC(=O)O
purified protein [2] = substrate: CC/C=C\C/C=C\C/C=C\C/C=C\C/C=C\CCCC(=O)O
purified protein [3] = substrate: CCCCC/C=C\C/C=C\C/C=C\C/C=C\CCCC(=O)O

B1: Osc-LOX (Phormidium nigroviride PCC 7112) (protein)
chain: MVDNMKPSLPQDDPNQEQRKDSLNRQQQAYQFDYESLSPLALLKNVPAVENFSSKYIGERILATSELPANMLAADSRTFLDPLDELQDYEDFFTLLPLPAVAKIYQTDRSFAEQRLSGANPMVLRLLDAGDPRAQTLAQISSFHPLFDLGQELQQKNIYVADYTGTDEHYRAPSKIGGGSYEKGRKFLPKPRAFFAWRWTGIRDRGEMTPIAIQLDPTPDSHVYTPFDPPVDWLFAKLCVQVADANHHEMSSHLGRTHLVMEPIAIVTARQLAQNHPLSLLLKPHFRFMLTNNELARSYLIAPGGPVDELLGGTLPETMEIAREACSTWSLDEFALPAELKNRGMDDTNQLPHYPYRDDGLLLWDAIETFVSGYLKFFYPTEIAIVQDVELQTWAQELASDRGGKVKGMPPRINTVEQLIKIVTTIIFTCGPQHSAVNFPQYEYMSFAANMPLAAYRDIPKITASGNLEVITEKDILRLLPPYKRAADQLKILFTLSAYRYDRLGYYDKSFRELYRMSFDEVFAGTPIQLLARQFQQNLNMAEQKIDANNQKRVIPYIALKPSLVINSISM
notes: N-terminal His6 tag (pET-28a, NdeI/XhoI) kept; codon-optimized synthetic gene; E. coli BL21(DE3)
Km (purified protein [1]): 63.9 ± 4.8 µM | kcat (purified protein [1]): 13.9 ± 0.348 s⁻¹ | kcat/Km (purified protein [1]): 218000 ± 11700 M⁻¹ s⁻¹ | Km (purified protein [2]): 67.0 ± 3.6 µM | kcat (purified protein [2]): 15.6 ± 0.452 s⁻¹ | kcat/Km (purified protein [2]): 233000 ± 6670 M⁻¹ s⁻¹ | Km (purified protein [3]): 68.9 ± 3.5 µM | kcat (purified protein [3]): 19.6 ± 0.277 s⁻¹ | kcat/Km (purified protein [3]): 285000 ± 10000 M⁻¹ s⁻¹
